Assay results reported in the supplement of paper PMC9732359.
± gives the uncertainty stated by the source.

Test: protein stability index of a GFP-peptide fusion (yeast GPS) (PSI 1-4); higher = more stable; sorted into four equal gates, so the index is relative within each strain
How it was run: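 Each library plasmid carries Cherry plus GFP with a tiled 17-residue yeast protein peptide fused downstream, and the pooled library was carried in yeast. Mid-log cultures in leucine-free medium were sorted into four equal gates by GFP/Cherry ratio. Reads from Illumina sequencing of PCR-amplified plasmids from each gate were assigned to strains by barcodes. Per peptide, the protein stability index was computed as the summed products of gate read frequency and gate number.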

Row | Sequence | protein stability index (doa10∆) | protein stability index (pdr5∆) | protein stability index (san1∆) | protein stability index (ubr1∆)
1 | PPLTYKNDTKILVLALE [PRP8] | 2.58 ± 0.057 | 2.48 ± 0.043 | 2.52 ± 0.055 | 2.04 ± 0.029
2 | NANIFSSVKCFGPIKVE [FAS1] | 2.04 ± 0.068 | 1.63 ± 0.046 | 2.17 ± 0.067 | 1.51 ± 0.058
3 | ITSINVENDTFIERNFT [FAS2] | 3.01 ± 0.089 | 2.68 ± 0.081 | 3.17 ± 0.072 | 3.19 ± 0.05
4 | EFTPADPNLSFESSSSL [SSN2] | 3.05 ± 0.17 | 3.09 ± 0.12 | 2.39 ± 0.16 | 2.79 ± 0.15
5 | AKFFLNVSDEQLSNWQK [ITC1] | 3.21 ± 0.073 | 3.21 ± 0.053 | 3.18 ± 0.063 | 3.17 ± 0.072
6 | TTNMNVNNCIWALKSSL [RGR1] | 2.26 ± 0.068 | 1.32 ± 0.065 | 1.36 ± 0.21 | 1.25 ± 0.046
7 | GRNGSNGNDESSEYETI [NUT1] | 3.13 ± 0.13 | 3.34 ± 0.11 | 3.09 ± 0.086 | 3 ± 0.12
8 | EDEGEELTDEYLAENPD [PRP8] | 3.43 ± 0.12 | 3.39 ± 0.13 | 3.33 ± 0.12 | 3.34 ± 0.092
9 | YKHIDASGSINRKVLQA [RPS19A] | 2.06 ± 0.072 | 3.27 ± 0.12 | 2.49 ± 0.073 | 2.53 ± 0.083
10 | VRRGNRKRPVPKGATYG [RPL15A] |  | 3.27 ± 0.19 | 3.6 ± 0.18 | 3.44 ± 0.14
11 | PSRKDCMEVASAFMKFS [BRR2] | 2.4 ± 0.054 | 2.78 ± 0.047 | 2.83 ± 0.06 | 2.68 ± 0.055
12 | YASKINRAEGPEELARI [RGR1] | 3.31 ± 0.12 | 3.26 ± 0.085 | 3.31 ± 0.067 | 3.24 ± 0.071
13 | GSMTKTWYVGNSRGKFD [SSN2] | 3.74 ± 0.26 |  | 3.08 ± 0.24 | 
14 | PSPPNVIITDGTLLRED [YDL088C/ASM4] | 2.71 ± 0.036 | 2.81 ± 0.041 | 2.97 ± 0.045 | 2.91 ± 0.034
15 | ISQKLHDSILHSRILPK [RRP43] | 2.57 ± 0.046 | 2.58 ± 0.033 | 2.62 ± 0.037 | 2.8 ± 0.038
16 | LAYENKITDKEDLLHYI [POP4] | 3.35 ± 0.15 | 3.31 ± 0.068 | 3.2 ± 0.068 | 3.24 ± 0.088
17 | VTRLFFICSIIQTVVIS [YML031W/NDC1] | 1.23 ± 0.051 | 1.28 ± 0.046 | 1.46 ± 0.076 | 1.75 ± 0.05
18 | KDLDGWQVIITDDQGRV [SIR3] | 3.15 ± 0.093 | 3.03 ± 0.077 | 3.21 ± 0.068 | 3.35 ± 0.064
19 | VFYAPNVKNYSTTQEIL [RPC34] | 2.4 ± 0.1 | 1.97 ± 0.071 | 3.02 ± 0.082 | 2.06 ± 0.048
20 | YLERTLDTFIKIDGNPD [PRE5] | 2.73 ± 0.098 | 3.2 ± 0.092 | 3.04 ± 0.055 | 3.3 ± 0.078
21 | MTMQVAVPRDELGRSNY [FAS1] | 2.7 ± 0.085 | 3 ± 0.11 | 2.99 ± 0.047 | 2.99 ± 0.092
22 | GYDINYISKIGEKIDSN [SWI1] | 3.2 ± 0.11 | 2.98 ± 0.085 | 3.23 ± 0.084 | 2.91 ± 0.11
23 | RNQILVSITDAPKIHIL [YMR129W/POM152] | 1.43 ± 0.041 | 1.35 ± 0.036 | 1.26 ± 0.057 | 1.61 ± 0.038
24 | IRPTELRLPFSAAMSID [PRP8] | 1.93 ± 0.049 | 1.98 ± 0.037 | 1.78 ± 0.057 | 2.24 ± 0.037
25 | DKVTSQAVNNLIKTLST [RPP1] | 2.53 ± 0.059 | 2.89 ± 0.078 | 2.47 ± 0.074 | 2.62 ± 0.048
26 | ILDPSTEYCVGDYVAYQ [YMR129W/POM152] | 2.83 ± 0.19 | 3.63 ± 0.18 | 2.47 ± 0.21 | 
27 | WNLNQFQIEADFIGHNS [ASC1] | 2.79 ± 0.079 | 2.7 ± 0.058 | 2.95 ± 0.076 | 2.52 ± 0.059

Row | Sequence | protein stability index (doa10∆) | protein stability index (pdr5∆) | protein stability index (san1∆) | protein stability index (ubr1∆)
28 | EDETVKVAQLRQTGPAK [NSL1] | 3.1 ± 0.16 | 2.83 ± 0.17 | 3.08 ± 0.19 | 3.67 ± 0.11
29 | KLIIHRKNDNANDHDES [SMC3] |  | 1.73 ± 0.21 |  | 1.36 ± 0.11
30 | TEKLSPLASEESLTNSN [YGL100W/SEH1] | 3.36 ± 0.13 | 3.25 ± 0.14 | 3.12 ± 0.099 | 3.32 ± 0.075
31 | MMMQQQLKNVQLDSYLV [MED2] | 2.21 ± 0.037 | 2.45 ± 0.061 | 1.69 ± 0.079 | 2.17 ± 0.032
32 | LSAENIEERLVAIAEQD [SCL1] | 3.22 ± 0.083 | 3.18 ± 0.089 | 3.33 ± 0.061 | 3.32 ± 0.066
33 | TKAQQKTAEQIAAERAA [RPL7B] | 2.81 ± 0.17 |  | 3.07 ± 0.13 | 
34 | TRQSSRNFDTHENYIQD [MCD1] | 2.92 ± 0.098 | 3.03 ± 0.082 | 2.84 ± 0.08 | 2.69 ± 0.056
35 | NLPEHIVPGTYIQERNP [RPS10A] | 2.64 ± 0.069 | 2.62 ± 0.068 | 2.7 ± 0.047 | 2.68 ± 0.045
36 | YEQHIENIEPLDPINLP [PRP8] | 2.38 ± 0.11 | 2.9 ± 0.091 | 2.5 ± 0.1 | 2.8 ± 0.071
37 | IQFGAKNMFEKKASKVT [ISW2] | 2.66 ± 0.07 | 2.91 ± 0.072 | 2.68 ± 0.074 | 2.69 ± 0.11
38 | KTYEPVLNEDDLAFGGE [RPN5] | 3.27 ± 0.09 | 3.1 ± 0.089 | 3.29 ± 0.058 | 3.51 ± 0.12
39 | KDGGDKPPSSAFNFSFN [YAR002W/NUP60] | 3.18 ± 0.066 | 3.22 ± 0.054 | 3.17 ± 0.052 | 3.29 ± 0.061
40 | MFKLGNFESPVLKELSR [YLR018C/POM34] |  | 3.37 ± 0.23 | 2.85 ± 0.15 | 2.66 ± 0.16
41 | NLQPISTPENVPRLFDL [SMC4] | 2.89 ± 0.11 | 2.93 ± 0.084 | 2.6 ± 0.12 | 2.48 ± 0.064
42 | PLLSNYASKINRAEGPE [RGR1] | 2.88 ± 0.12 | 2.8 ± 0.1 | 2.87 ± 0.12 | 2.55 ± 0.082
43 | IDDENITKLNKEIRAFD [SRB4] | 3.44 ± 0.066 | 3.33 ± 0.063 | 3.27 ± 0.043 | 3.38 ± 0.056
44 | EYSYVDSNMDSISSVVS [RPN4] | 2.84 ± 0.075 | 3.26 ± 0.066 | 2.68 ± 0.076 | 3.05 ± 0.043
45 | GSESDDSEGSIKQTSDE [ECM29] | 3.32 ± 0.1 | 3.57 ± 0.083 | 3.32 ± 0.068 | 3.42 ± 0.062
46 | SLEMVPKDTSAATMTSA [RGR1] | 2.47 ± 0.11 | 2.77 ± 0.12 | 2.73 ± 0.088 | 2.93 ± 0.088
47 | DISLKADLERFFLSIYF [YJL039C/NUP192] | 3.24 ± 0.13 | 2.79 ± 0.092 | 2.96 ± 0.099 | 2.94 ± 0.044
48 | KDAQKKDIEKLTNEISD [YIL149C/MLP2] | 2.54 ± 0.086 | 2.98 ± 0.07 | 2.65 ± 0.061 | 2.49 ± 0.078
49 | ATLQSNEPTQKDEEETE [DSN1] | 3.21 ± 0.16 | 3.18 ± 0.12 | 3.17 ± 0.1 | 2.79 ± 0.1
50 | DTKLRLEKSKNECQRLQ [YIL149C/MLP2] | 2.57 ± 0.055 | 2.85 ± 0.059 | 2.54 ± 0.056 | 2.87 ± 0.04
51 | VVDVALKYPELSIKNSF [NUT1] | 3.04 ± 0.071 | 2.94 ± 0.056 | 2.97 ± 0.059 | 2.77 ± 0.047
52 | IPTLAIDSVEVETNTTV [RPB3] | 2.82 ± 0.22 | 2.44 ± 0.16 | 2.94 ± 0.083 | 2.98 ± 0.059
53 | DIETQLCSMLQEASQVT [MED11] | 2.73 ± 0.1 | 2.73 ± 0.11 | 2.32 ± 0.11 | 2.44 ± 0.074
